Measurements published in patent publication US20210380657A1 (COUNCIL OF THE QUEENSLAND INSTITUTE OF MEDICAL RESEARCH, published 2021).

B1: TCR Clone 1 of Donor B33 in Table 5 (TCR, V domains shown)
V domain 1: GQQVMQIPQYQHVQEGEDFTTYCNSSTTLSNIQWYKQRPGGHPVFLIQLVKSGEVKKQKRLTFQFGEAKKNSSLHITATQTTDVGTYFCAGPGTGAGSYQLTFGKGTKLSVIP
V domain 2: DVKVTQSSRYLVKRTGEKVFLECVQDMDHENMFWYRQDPGLGLRLIYFSYDVKMKEKGDIPEGYSVSREKKERFSLILESASTNQTSMYLCASIKSSGYNEQFFGPGTRLTVLE
notes: also called Donor B33 Clone 1
B2: TCR Clone 1 of Donor B5F in Table 5 (TCR, V domains shown)
V domain 1: GQQVMQIPQYQHVQEGEDFTTYCNSSTTLSNIQWYKQRPGGHPVFLIQLVKSGEVKKQKRLTFQFGEAKKNSSLHITATQTTDVGTYFCAGPYSGAGSYQLTFGKGTKLSVIP
V domain 2: DVKVTQSSRYLVKRTGEKVFLECVQDMDHENMFWYRQDPGLGLRLIYFSYDVKMKEKGDIPEGYSVSREKKERFSLILESASTNQTSMYLCASILSSGYNEQFFGPGTRLTVLE
notes: also called Donor B5F Clone 1
B3: TCR Clone 1 of Donor Y6W in Table 5 (TCR, V domains shown)
V domain 1: SLAKTTQPISMDSYEGQEVNITCSHNNIATNDYITWYQQFPSQGPRFIIQGYKTKVTNEVASLFIPADRKSSTLSLPRVSLSDTAVYYCLVVPFGGYNKLIFGAGTRLAVHP
V domain 2: SAVISQKPSRDICQRGTSLTIQCQVDSQVTMMFWYRQQPGQSLTLIATANQGSEATYESGFVIDKFPISRPNLTFSTLTVSNMSPEDSSIYLCSVGEGTSGYESYNEQFFGPGTRLTVLE
notes: also called Donor Y6W Clone 1
B4: TCR Clone 2 of Donor Y6W in Table 5 (TCR, V domains shown)
V domain 1: QKEVEQNSGPLSVPEGAIASLNCTYSDRGSQSFFWYRQYSGKSPELIMFIYSNGDKEDGRFTAQLNKASQYVSLLIRDSQPSDSATYLCAVNVGNTGFQKLVFGTGTRLLVSP
V domain 2: SQTIHQWPATLVQPVGSPLSLECTVEGTSNPNLYWYRQAAGRGLQLLFYSVGIGQISSEVPQNLSASRPQDRQFILSSKKLLLSDSGFYLCACQWQGLGGELFFGEGSRLTVLE
notes: also called Donor Y6W Clone 2
B5: TCR Clone 3 of Donor Y6W in Table 5 (TCR, V domains shown)
V domain 1: GENVEQHPSTLSVQEGDSAVIKCTYSDSASNYFPWYKQELGKGPQLIIDIRSNVGEKKDQRIAVTLNKTAKHFSLHITETQPEDSAVYFCAASEFQFYFGTGTSLTVIP
V domain 2: DSGVTQTPKHLITATGQRVTLRCSPRSGDLSVYWYQQSLDQGLQFLIQYYNGEERAKGNILERFSAQQFPDLHSELNLSSLELGDSALYFCASSPGQRANTGELFFGEGSRLTVLE
notes: also called Donor Y6W Clone 3
B6: TCR Clone 6 of Donor Y6W in Table 5 (TCR, V domains shown)
V domain 1: QKEVEQNSGPLSVPEGAIASLNCTYSDRGSQSFFWYRQYSGKSPELIMFIYSNGDKEDGRFTAQLNKASQYVSLLIRDSQPSDSATYLCAAEPFSSYKLIFGSGTRLLVRP
V domain 2: GAGVSQSPSNKVTEKGKDVELRCDPISGHTALYWYRQSLGQGLEFLIYFQGNSAPDKSGLPSDRFSAERTGGSVSTLTIQRTQQEDSAVYLCASSFIGGTGLNEQFFGPGTRLTVLE
notes: also called Donor Y6W Clone 6
B7: TCR Clone 8 of Donor Y6W in Table 5 (TCR, V domains shown)
V domain 1: KTTQPPSMDCAEGRAANLPCNHSTISGNEYVYWYRQIHSQGPQYIIHGLKNNETNEMASLIITEDRKSSTLILPHATLRDTAVYYCIVRVAGGTSYGKLTFGQGTILTVHP
V domain 2: SQTIHQWPATLVQPVGSPLSLECTVEGTSNPNLYWYRQAAGRGLQLLFYSVGIGQISSEVPQNLSASRPQDRQFILSSKKLLLSDSGFYLCAWSSAPDRGHRQPQHFGDGTRLSILE
notes: also called Donor Y6W Clone 8
B8: TCR Clone 10 of Donor Y6W in Table 5 (TCR, V domains shown)
V domain 1: RKEVEQDPGPFNVPEGATVAFNCTYSNSASQSFFWYRQDCRKEPKLLMSVYSSGNEDGRFTAQLNRASQYISLLIRDSKLSDSATYLCVLSGAGSYQLTFGKGTKLSVIP
V domain 2: NAGVTQTPKFQVLKTGQSMTLQCAQDMNHNSMYWYRQDPGMGLRLIYYSASEGTTDKGEVPNGYNVSRLNKREFSLRLESAAPSQTSVYFCASSEWREETQYFGPGTRLLVLE
notes: also called Donor Y6W Clone 10
B9: TCR Clone 13 of Donor Y6W in Table 5 (TCR, V domains shown)
V domain 1: AQSVTQPDIHITVSEGASLELRCNYSYGATPYLFWYVQSPGQGLQLLLKYFSGDTLVQGIKGFEAEFKRSQSSFNLRKPSVHWSDAAEYFCAAPGVGSNSGYALNFGKGTSLLVTP
V domain 2: DSGVTQTPKHLITATGQRVTLRCSPRSGDLSVYWYQQSLDQGLQFLIQYYNGEERAKGNILERFSAQQFPDLHSELNLSSLELGDSALYFCASSPSWAANSPLHFGNGTRLTVTE
notes: also called Donor Y6W Clone 13
B10: TCR Clone 14 of Donor Y6W in Table 5 (TCR, V domains shown)
V domain 1: TGQNIDQPTEMTATEGAIVQINCTYQTSGFNGLFWYQQHAGEAPTFLSYNVLDGLEEKGRFSSFLSRSKGYSYLLLKELQMKDSASYLCAGEDQTGANNLFFGTGTRLTVIP
V domain 2: DVKVTQSSRYLVKRTGEKVFLECVQDMDHENMFWYRQDPGLGLRLIYFSYDVKMKEKGDIPEGYSVSREKKERFSLILESASTNQTSMYLCASGTLSYNEQFFGPGTRLTVLE
notes: also called Donor Y6W Clone 14
B11: TCR Clone 1 of Donor R7Z in Table 3 (TCR, V domains shown)
V domain 1: KQEVTQIPAALSVPEGENLVLNCSFTDSAIYNLQWFRQDPGKGLTSLLLIQSSQREQTSGRLNASLDKSSGRSTLYIAASQPGDSATYLCAVWAGGTSYGKLTFGQGTILTVHP
V domain 2: DVKVTQSSRYLVKRTGEKVFLECVQDMDHENMFWYRQDPGLGLRLIYFSYDVKMKEKGDIPEGYSVSREKKERFSLILESASTNQTSMYLCASSPAGRPGKPLHFGNGTRLTVTE
notes: also called Donor R7Z Clone 1
B12: TCR Clone 5 of Donor R7Z in Table 3 (TCR, V domains shown)
V domain 1: GIQVEQSPPDLILQEGANSTLRCNFSDSVNNLQWFHQNPWGQLINLFYIPSGTKQNGRLSATTVATERYSLLYISSSQTTDSGVYFCAVVGNNDMRFGAGTRLTVKP
V domain 2: DSGVTQTPKHLITATGQRVTLRCSPRSGDLSVYWYQQSLDQGLQFLIQYYNGEERAKGNILERFSAQQFPDLHSELNLSSLELGDSALYFCASSVAPWYEQYFGPGTRLTVTE
notes: also called Donor R7Z Clone 5
B13: TCR Clone 1 of Donor B5F in Table 3 (TCR, V domains shown)
V domain 1: GIQVEQSPPDLILQEGANSTLRCNFSDSVNNLQWFHQNPWGQLINLFYIPSGTKQNGRLSATTVATERYSLLYISSSQTTDSGVYFCAVLNNNDMRFGAGTRLTVKP
V domain 2: DSGVTQTPKHLITATGQRVTLRCSPRSGDLSVYWYQQSLDQGLQFLIQYYNGEERAKGNILERFSAQQFPDLHSELNLSSLELGDSALYFCASSVSSWYEQFFGPGTRLTVLE
notes: also called Donor B5F Clone 1
B14: TCR Clone 2 of Donor R7Z in Table 3 (TCR, V domains shown)
V domain 1: GIQVEQSPPDLILQEGANSTLRCNFSDSVNNLQWFHQNPWGQLINLFYIPSGTKQNGRLSATTVATERYSLLYISSSQTTDSGVYFCAVVINNDMRFGAGTRLTVKP
V domain 2: DSGVTQTPKHLITATGQRVTLRCSPRSGDLSVYWYQQSLDQGLQFLIQYYNGEERAKGNILERFSAQQFPDLHSELNLSSLELGDSALYFCASSVAPFYEQYFGPGTRLTVTE
notes: also called Donor R7Z Clone 2
B15: TCR Clone 3 of Donor R7Z in Table 3 (TCR, V domains shown)
V domain 1: AQSVAQPEDQVNVAEGNPLTVKCTYSVSGNPYLFWYVQYPNRGLQFLLKYITGDNLVKGSYGFEAEFNKSQTSFHLKKPSALVSDSALYFCAVREASGANNLFFGTGTRLTVIP
V domain 2: SQTIHQWPATLVQPVGSPLSLECTVEGTSNPNLYWYRQAAGRGLQLLFYSVGIGQISSEVPQNLSASRPQDRQFILSSKKLLLSDSGFYLCAWSPQGNSPLHFGNGTRLTVTE
notes: also called Donor R7Z Clone 3
B16: TCR Clone 4 of Donor R7Z in Table 3 (TCR, V domains shown)
V domain 1: AQSVTQLDSHVSVSEGTPVLLRCNYSSSYSPSLFWYVQHPNKGLQLLLKYTSAATLVKGINGFEAEFKKSETSFHLTKPSAHMSDAAEYFCVVSYLGDTGRRALTFGSGTRLQVQP
V domain 2: EPEVTQTPSHQVTQMGQEVILRCVPISNHLYFYWYRQILGQKVEFLVSFYNNEISEKSEIFDDQFSVERPDGSNFTLKIRSTKLEDSAMYFCASSESGSPTGELFFGEGSRLTVLE
notes: also called Donor R7Z Clone 4
B17: TCR Clone 2 of Donor B5F in Table 3 (TCR, V domains shown)
V domain 1: GESVGLHLPTLSVQEGDNSIINCAYSNSASDYFIWYKQESGKGPQFIIDIRSNMDKRQGQRVTVLLNKTVKHLSLQIAATQPGDSAVYFCAETPGGYQKVTFGTGTKLQVIP
V domain 2: EAQVTQNPRYLITVTGKKLTVTCSQNMNHEYMSWYRQDPGLGLRQIYYSMNVEVTDKGDVPEGYKVSRKEKRNFPLILESPSPNQTSLYFCASSLWTSNSPLHFGNGTRLTVTE
notes: also called Donor B5F Clone 2
B18: TCR Clone 1 of Donor T3V in Table 3 (TCR, V domains shown)
V domain 1: DQQVKQNSPSLSVQEGRISILNCDYTNSMFDYFLWYKKYPAEGPTFLISISSIKDKNEDGRFTVFLNKSAKHLSLHIVPSQPGDSAVYFCAASAGGQNFVFGPGTRLSVLP
V domain 2: DAGITQSPRHKVTETGTPVTLRCHQTENHRYMYWYRQDPGHGLRLIHYSYGVKDTDKGEVSDGYSVSRSKTEDFLLTLESATSSQTSVYFCAIRRGGSSYNEQFFGPGTRLTVLE
notes: also called Donor T3V Clone 1
B19: TCR Clone 3 of Donor T3V in Table 3 (TCR, V domains shown)
V domain 1: AGQSLEQPSEVTAVEGAIVQINCTYQTSGFYGLSWYQQHDGGAPTFLSYNALDGLEETGRFSSFLSRSDSYGYLLLQELQMKDSASYFCAVPRRNNNARLMFGDGTQLVVKP
V domain 2: EAQVTQNPRYLITVTGKKLTVTCSQNMNHEYMSWYRQDPGLGLRQIYYSMNVEVTDKGDVPEGYKVSRKEKRNFPLILESPSPNQTSLYFCASSLNTGMNTEAFFGQGTRLTVVE
notes: also called Donor T3V Clone 3
B20: TCR Clone 1 of Donor P6G in Table 3 (TCR, V domains shown)
V domain 1: KQEVTQIPAALSVPEGENLVLNCSFTDSAIYNLQWFRQDPGKGLTSLLLIQSSQREQTSGRLNASLDKSSGRSTLYIAASQPGDSATYLCAVGGDDSGAGSYQLTFGKGTKLSVIP
V domain 2: DSGVTQTPKHLITATGQRVTLRCSPRSGDLSVYWYQQSLDQGLQFLIQYYNGEERAKGNILERFSAQQFPDLHSELNLSSLELGDSALYFCASSRPEGIYNEQFFGPGTRLTVLE
notes: also called Donor P6G Clone 1
B21: TCR Clone 1 of Donor A4T in Table 3 (TCR, V domains shown)
V domain 1: DQQVKQNSPSLSVQEGRISILNCDYTNSMFDYFLWYKKYPAEGPTFLISISSIKDKNEDGRFTVFLNKSAKHLSLHIVPSQPGDSAVYFCAASGLVEGNTPLVFGKGTRLSVIA
V domain 2: EAGVAQSPRYKIIEKRQSVAFWCNPISGHATLYWYQQILGQGPKLLIQFQNNGVVDDSQLPKDRFSAERLKGVDSTLKIQPAKLEDSAVYLCASSLFPGTGIHEQYFGPGTRLTVTE
notes: also called Donor A4T Clone 1

Molecular target: HLA-A*24:02-… (human; Epstein Barr Virus)
Test: HLA-peptide multimer staining and single-cell sorting of CD8+ T cells, paired TCR sequencing
Description: (§1) T cell lines were labelled with an allophycocyanin (APC)-conjugated HLA-peptide multimer (ProImmune Ltd., Oxford, UK) by incubation for 30 minutes at room temperature. Cells were then washed and incubated with Cy5.5-PerCP conjugated anti-human CD8 mAb (BioLegend, San Diego, Calif.) for 30 minutes at 4° C. Cells were washed, analyzed and sorted as single cells into 96-well PCR plates (Eppendorf, Hamburg, Germany) using the FACS Aria III flow cytometer (BD Biosciences).

Binder	binding result
B1	binds
B2	binds
B3	binds
B4	binds
B5	binds
B6	binds
B7	binds
B8	binds
B9	binds
B10	binds

Molecular target: HLA-A*11:01-… (human; Epstein Barr Virus)
Test: as above
Description: as §1

Binder	binding result
B11	binds
B12	binds
B13	binds
B14	binds
B15	binds
B16	binds
B17	binds
B18	binds
B19	binds
B20	binds
B21	binds
